{
  "source": "patent US8211649B2",
  "about": "“Methods of diagnosing and prognosing hodgkin's lymphoma” (Human Genome Sciences, Inc., priority 2006, dated 2012)",
  "molecules": {"B1": {"name": "IL-10: cytokine (protein, UniProt P22301 19-178, looked up)", "Interleukin-10": "SPGQGTQSENSCTHFPGNLPNMLRDLRDAFSRVKTFFQMKDQLDNLLLKESLLEDFKGYLGCQALSEMIQFYLEEVMPQAENQDPDIKAHVNSLGENLKTLRLRLRRCHRFLPCENKSKAVEQVKNAFNKLQEKGIYKAMSEFDIFINYIEAYMTMKIRN"}, "B2": {"name": "IL-4: cytokine (protein, UniProt P05112 25-153, looked up)", "Interleukin-4": "HKCDITLQEIIKTLNSLTEQKTLCTELTVTDIFAASKNTTEKETFCRAATVLRQFYSHHEKDTRCLGATAQQFHRHKQLIRFLKRLDRNLWGLAGLNSCPVKEANQSTLENFLERLKTIMREKYSKCSS"}},
  "key": {"HIV": {"system": "HIV", "conditions": "greater activity; cited from earlier work"}, "[1]": {"system": "Neutrokine-alpha expression in monocytes and macrophages", "test": "cytokine effect on Neutrokine-alpha expression and release in monocytes and macrophages", "assay_type": "cell-based", "conditions": "single cytokine, in vitro"}, "[2]": {"system": "Neutrokine-alpha expression on monocytes", "test": "FACS of Neutrokine-alpha cell surface expression with mAb 2E5", "assay_type": "cell-based, human", "conditions": "IFN-gamma 100 U/mL for three days", "protocol": "The expression profile of Neutrokine-alpha was assessed by Northern blot (FIG. 7B) and flow cytometric analyses (Table V and FIGS. 8A, 8B and 8C). Neutrokine-alpha is encoded by a single 2.6 kb mRNA found at high levels in peripheral blood leukocytes, spleen, lymph node and bone marrow. Lower expression levels were detected in placenta, heart, lung, fetal liver, thymus and pancreas. Among a panel of cell lines, Neutrokine-alpha mRNA was detected in HL-60 and […], but not in Raji, HeLa, or MOLT-4 cells. […] A concomitant increase in Neutrokine-alpha-specific mRNA was also detected (FIG. 8C). By contrast, Neutrokine-alpha was not expressed on freshly isolated peripheral blood granulocytes, T cells, B cells, or NK cells.\n(§1) FACS analysis. Neutrokine-alpha expression was assessed on human cell lines, freshly isolated normal peripheral blood nucleated cells, and in vitro cultured monocytes, a mouse anti-human Neutrokine-alpha mAb 2E5 (IgG1) followed by PE-conjugated F(ab′)2 goat antibody to mouse IgG (CALTAG Laboratories, Burlingame, Calif.). Cells were analyzed using a FACScan (Becton Dickinson Immunocytometry Systems, San Jose, Calif.) with propidium iodide to exclude dead cells. Neutrokine-alpha binding was assessed using rNeutrokine-alpha biotinylated with a N-hydroxysuccinimidobiotin reagent (Pierce, Rockford, Ill.) followed by PE-conjugated streptavidin (Dako Corp, Glostrup, Denmark)."}, "Neutrokine-alpha protein [3]": {"target": "T1, Neutrokine-alpha protein (Homo sapiens, UniProt Q9Y275)", "T1 sequence (Q9Y275 134-285 limits assumed)": "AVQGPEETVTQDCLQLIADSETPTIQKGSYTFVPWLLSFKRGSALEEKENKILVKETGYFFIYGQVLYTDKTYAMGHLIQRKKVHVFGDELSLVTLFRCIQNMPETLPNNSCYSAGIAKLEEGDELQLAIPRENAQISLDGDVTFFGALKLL", "quoted_text": "449 subjects with SLE by ACR criteria (Tan et al., Arthritis Rheum. 25:1271-7, (1982); and Hochberg et al., Arthritis Rheum. 40:1725, (1997)) and SELENA SLEDAI score ≧4 at screening were dosed."}, "Neutrokine-alpha protein [4]": {"target": "T1, Neutrokine-alpha protein", "remark": "listed apart in the source", "quoted_text": "A Phase 2, multi-center, randomized, double-blind, placebo-controlled study was performed in subjects with RA. Subjects were randomized into 4 treatment groups (placebo, 1 mg/kg, 4 mg/kg and 10 mg/kg).\nAn ACR20 response is defined as at least a 20% reduction in tender joint count and swollen joint count, in addition to an improvement of at least 20% on three of five other assessments of symptoms or disease manifestations (i.e., patient pain assessment, patient global assessment, physician global assessment, patient self-assessed disability, acute-phase reactant [ESR or CRP])."}, "human tonsillar B cells": {"system": "human tonsillar B cells", "test": "B lymphocyte co-stimulatory proliferation assay (3H-thymidine)", "assay_type": "cell-based", "conditions": "after biotinylation", "protocol": "Purified recombinant Neutrokine-alpha (“rNeutrokine-alpha”) was assessed for its ability to induce activation, proliferation, differentiation or death in numerous cell based assays involving B cells, T cells, monocytes, NK cells, hematopoietic progenitors, and a variety of cell types of endothelial and epithelial origin. […] A dose-dependent response is readily observed as the amount of crosslinking agent increases in the presence of a fixed concentration of either 1L2 or rNeutrokine-alpha.\nB lymphocyte proliferation assay. […] The resulting cell population was routinely greater than 95% B cells as assessed by expression of CD19 and CD20. […] Proliferation was quantitated by a 20 h pulse (1 microCi/well) of ^3H-thymidine (6.7 Ci/mM) beginning 72 h post factor addition.\nIn Vitro assay—Purified Neutrokine-alpha and/or Neutrokine-alphaSV protein, or truncated forms thereof, is assessed for its ability to induce activation, proliferation, differentiation or inhibition and/or death in B-cell populations and their precursors. […] Novel synergizing agents can be readily identified using this assay. […] The resulting cell population is greater than 95% B cells as assessed by expression of CD45R(B220). […] Proliferation or inhibition is quantitated by a 20 h pulse (1 uCi/well) with ^3H-thymidine (6.7 Ci/mM) beginning 72 h post factor addition. […]"}, "[5]": {"system": "Neutrokine-alpha receptor", "test": "FACS binding of biotinylated Neutrokine-alpha to blood cells and cell lines", "parameters": "species or system human", "from_the_text": "In an attempt to correlate the specific biological activity on B cells with receptor expression, purified Neutrokine-alpha was biotinylated. […] In contrast, biotinylated Neutrokine-alpha bound peripheral CD20^+ B cells. Receptor expression was also detected on the B cell tumor lines REH, ARH-77, Raji, Namalwa, RPMI 8226, and IM-9 but not any of the myeloid-derived lines tested including THP-1, HL-60, K-562, and U-937. Similar results were also obtained using a biologically active FLAG-tagged Neutrokine-alpha protein instead of the chemically modified biotin-Neutrokine-alpha. […] It remains to be shown whether cellular activation may induce expression of Neutrokine-alpha receptors on peripheral blood cells, other normal cell types or established cell lines.\nas §1"}, "[6]": {"parameters": "species or system BALB/c mice", "conditions": "mouse", "protocol": "Neutrokine-alpha was radiolabeled with ^125I and injected intravenously into BALB/c mice. Three doses and 4 timepoints over a 24-hr period were studied. Biodistribution was measured by direct counting of the radioactivity in dissected whole organs or tissues and by whole body quantitative autoradiography (QAR)."}, "B cells": {"system": "B cells", "test": "Neutrokine-alpha mediated B cell proliferation, enhancement by cytokines", "assay_type": "cell-based", "conditions": "observed by the inventors"}, "[7]": {"conditions": "week 52, all treatment groups combined, reduction"}},
  "note": "Where two headings read alike, the source gives them in different places.",
  "data": [
    {"molecule": "Nc1nc(=O)n([C@@H]2CS[C@H](CO)O2)cc1F", "note": "[COVIRACIL, emtricitabine]", "values": [
      {"measurement": "activity in vitro relative to lamivudine (3TC)", "setting": "HIV", "result": "3- to 10 fold"}
    ]},
    {"molecule": "CC[C@H]1C(=O)Nc2ccc(F)cc2N1C(=O)OC(C)C", "note": "[GW-420867X]", "values": [
      {"measurement": "activity relative to HBY097", "setting": "HIV", "result": 25, "unit": "fold"}
    ]},
    {"molecule": "C[C@H](Sc1nc(N)cc(Cl)n1)c1cc2ccoc2cn1", "note": "[PNU-142721]", "values": [
      {"measurement": "activity relative to delavirdine", "setting": "HIV", "result": "20- to 50 fold"}
    ]},
    {"molecule": "IFN-gamma: cytokine", "values": [
      {"measurement": "cell surface expression of Neutrokine-alpha in monocytes and macrophages", "setting": "[1]", "result": "enhance"},
      {"measurement": "upregulation of Neutrokine-alpha expression on resting monocytes", "setting": "[2]", "result": "approximately 4 fold"}
    ]},
    {"molecule": "belimumab: an antibody that neutralizes Neutrokine-alpha protein", "values": [
      {"measurement": "decrease of serum IgG", "setting": "Neutrokine-alpha protein [3]; belimumab-treated arms", "result": 10, "unit": "%"},
      {"measurement": "PGA", "setting": "Neutrokine-alpha protein [3]; by week 16 through week 52, all active vs. placebo", "result": "improved"},
      {"measurement": "plasma and memory cell populations", "setting": "Neutrokine-alpha protein [3]; in vivo", "result": "preserved"},
      {"measurement": "primary efficacy endpoints (percent reduction in SS score at week 24, time to flare over 52 weeks)", "setting": "Neutrokine-alpha protein [3]; in vivo", "result": "did not reach statistical significance"},
      {"measurement": "safety, including adverse events, AE severity, infections or lab toxicity vs. placebo", "setting": "Neutrokine-alpha protein [3]; in vivo", "result": "No clinically significant differences"},
      {"measurement": "severe infusion reaction events", "setting": "Neutrokine-alpha protein [3]; in vivo", "result": 1},
      {"measurement": "subjects with pleurisy", "setting": "Neutrokine-alpha protein [3]; in vivo", "result": 3.3, "unit": "%"},
      {"measurement": "increase of C4", "setting": "Neutrokine-alpha protein [3]; low baseline C4, belimumab-treated arms", "result": 33, "unit": "%"},
      {"measurement": "anti-dsDNA+ subjects converted to negative", "setting": "Neutrokine-alpha protein [3]; week 52", "result": 14.5, "unit": "%"},
      {"measurement": "SS score", "setting": "Neutrokine-alpha protein [3]; week 52, ANA+ subjects", "result": "significantly reduced"},
      {"measurement": "median percent change in CD20+ B cells", "setting": "Neutrokine-alpha protein [3]; [7]", "result": 54, "unit": "%"},
      {"measurement": "median percent change in plasmacytoid B cells (CD20+/CD138+)", "setting": "Neutrokine-alpha protein [3]; [7]", "result": 62, "unit": "%"},
      {"measurement": "reduction of anti-dsDNA Ab", "setting": "Neutrokine-alpha protein [3]; week 52, baseline positive", "result": 30, "unit": "%"},
      {"measurement": "median percent change in activated B-cells (CD20+/CD69+ B cells)", "setting": "Neutrokine-alpha protein [3]; week 52, reduction", "result": 70, "unit": "%"},
      {"measurement": "SLE flares", "setting": "Neutrokine-alpha protein [3]; weeks 24-52 using a 24 week baseline", "result": "decreased"},
      {"measurement": "ACR20 response versus placebo", "setting": "Neutrokine-alpha protein [4]; 1 mg/kg treatment group, 24 weeks (p=0.0097)", "result": "statistically superior"},
      {"measurement": "ACR20 response", "setting": "Neutrokine-alpha protein [4]; Week 48, extension period", "result": "approximately 40%"},
      {"measurement": "ACR20 response versus placebo", "setting": "Neutrokine-alpha protein [4]; all active treatment groups combined, 24 weeks (p=0.0213)", "result": "statistically superior"},
      {"measurement": "CD20+ B-cells, naïve B-cells, activated B-cells and RF", "setting": "Neutrokine-alpha protein [4]; biological activity", "result": "statistically significant reductions"}
    ]},
    {"molecule": "biotinylated Neutrokine-alpha: purified Neutrokine-alpha biotinylated with N-hydroxysuccinimidobiotin reagent", "values": [
      {"measurement": "biological function in the standard B cell proliferation assays", "setting": "human tonsillar B cells", "result": "retained biological function"},
      {"measurement": "receptor expression (binding of biotinylated Neutrokine-alpha)", "setting": "[5]; B cell tumor lines REH, ARH-77, Raji, Namalwa, RPMI 8226, IM-9", "result": "detected"},
      {"measurement": "binding of biotinylated Neutrokine-alpha", "setting": "[5]; T cells, monocytes, NK cells and granulocytes of human peripheral blood", "result": "undetectable"},
      {"measurement": "receptor expression (binding of biotinylated Neutrokine-alpha)", "setting": "[5]; myeloid-derived lines THP-1, HL-60, K-562, U-937", "result": "not any"},
      {"measurement": "binding of biotinylated Neutrokine-alpha", "setting": "[5]; peripheral CD20+ B cells", "result": "bound"}
    ]},
    {"molecule": "radiolabeled Neutrokine-alpha: Neutrokine-alpha (amino acids 134-285 of SEQ ID NO:2) radiolabeled with 125I", "values": [
      {"measurement": "in vivo targeting specificity", "setting": "[6]", "result": "high in vivo targeting specificity for lymphoid tissues"},
      {"measurement": "QAR signal in liver and kidney", "setting": "[6]; in vivo", "result": "no longer had observable levels"},
      {"measurement": "QAR signal in spleen, lymph nodes and GALT", "setting": "[6]; in vivo", "result": "still strongly positive"},
      {"measurement": "concentration of radioactivity in kidney", "setting": "[6]; in vivo, iv, 0.01 mg/kg, 3 h", "result": "~5 % injected dose (ID)/g"},
      {"measurement": "concentration of radioactivity in liver", "setting": "[6]; in vivo, iv, 0.01 mg/kg, 3 h", "result": "~5 % injected dose (ID)/g"},
      {"measurement": "concentration of radioactivity in lymph node", "setting": "[6]; in vivo, iv, 0.01 mg/kg, 3 h", "result": "23 % injected dose (ID)/g"},
      {"measurement": "concentration of radioactivity in spleen", "setting": "[6]; in vivo, iv, 0.01 mg/kg, 3 h", "result": "63 % injected dose (ID)/g"}
    ]},
    {"molecule": "B1", "values": [
      {"measurement": "effect on Neutrokine-alpha mediated B cell proliferation", "setting": "B cells", "result": "enhance"},
      {"measurement": "cell surface expression of Neutrokine-alpha in monocytes and macrophages", "setting": "[1]", "result": "enhance"}
    ]},
    {"molecule": "B2", "values": [
      {"measurement": "effect on Neutrokine-alpha mediated B cell proliferation", "setting": "B cells", "result": "enhance"},
      {"measurement": "cell surface expression of Neutrokine-alpha in monocytes and macrophages", "setting": "[1]", "result": "decreased"}
    ]}
  ]
}
